Experimental data from patent publication US20150218285A1 (TORAY INDUSTRIES, published 2015).

T1: CAPRIN-1 protein on the cell surface of human cancer cells (human, UniProt Q14444 2-709)
T1 sequence (looked up): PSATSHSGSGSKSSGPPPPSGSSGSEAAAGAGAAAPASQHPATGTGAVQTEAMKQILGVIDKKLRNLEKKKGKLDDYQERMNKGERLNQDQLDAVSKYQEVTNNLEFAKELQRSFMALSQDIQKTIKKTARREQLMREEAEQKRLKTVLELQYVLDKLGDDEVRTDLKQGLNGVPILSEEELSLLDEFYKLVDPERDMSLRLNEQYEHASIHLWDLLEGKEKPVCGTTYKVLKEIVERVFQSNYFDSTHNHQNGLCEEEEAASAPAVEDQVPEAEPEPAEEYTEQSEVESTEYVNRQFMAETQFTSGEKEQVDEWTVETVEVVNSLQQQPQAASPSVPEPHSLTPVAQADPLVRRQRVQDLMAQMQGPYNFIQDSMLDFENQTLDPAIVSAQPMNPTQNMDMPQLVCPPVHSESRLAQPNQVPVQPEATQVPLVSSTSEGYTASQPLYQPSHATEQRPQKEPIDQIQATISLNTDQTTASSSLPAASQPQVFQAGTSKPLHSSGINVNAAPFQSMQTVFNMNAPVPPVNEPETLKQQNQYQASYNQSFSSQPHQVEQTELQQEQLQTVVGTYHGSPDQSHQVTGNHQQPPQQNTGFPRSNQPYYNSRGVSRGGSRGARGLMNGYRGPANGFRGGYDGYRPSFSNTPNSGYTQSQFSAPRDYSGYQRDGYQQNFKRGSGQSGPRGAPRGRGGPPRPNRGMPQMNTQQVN

B1: mouse monoclonal antibody #6 (antibody)
chain 1: DAELVKPGASVKISCKASGYTFTDHSIHWVQQKPEQGLEWIGYISPGNGNIKYNEKFKGKATLTADKSSSTAYMQLNSLTSEDSAVYFCKRSLGRGGPYYFDYWGQGTTVTVSS
chain 2: DIVLTQAAPSLPVTPGESVSISCRSSKSLLHSNGNTYLYWFLQRPGQSPQLLIYRMSNLASGVPDRFSGSGSGTAFTLRISRVEAEDVGVYYCMQHREYPVTFGSGPN
B2: mouse monoclonal antibody #8 (antibody, V domains shown)
VH: GGGLVKPGGSLKLSCAASGFAFSSYDMSWIRQTPEKRLEWVAYISSGAGSTYYPDTVKGRFTVSRDNAKNTLYLQMSSLKSEDTAMYYCARHFYRFDYWGQGTTVTVSS
VL: SIVMTQTPKFLLVSAGDRITITCKASQSVSNDVAWYQQKPGQSPKLLIYYASNRYTGVPDRFTGSGYGTDFTFTISTVQAEDLAVYFCQQDDRFPLTFGAGPS
notes: mouse hybridoma antibody; also called anti-CAPRIN-1 monoclonal antibody #8
B3: human-mouse chimeric anti-CAPRIN-1 antibody #27 (antibody, human IgG1, kappa, V domains shown)
VH: GGGLVQPGGSMRLSCVASGFTFSNSWFNWVRQSPEKGLEWVAEIRLTSDNYAIYYAESVKGRFTISRDDSKSSVYLQMNNLRAEDTGIYYCTRPETARATFAYWGQGTTVTVSS
VL: DVLMTQTPLSLPVSLGDQASISCRSSQSIVHSNGNTYLEWYLQKPGQSPKVLIYKVFNRFSGVPDRFSGSGSGTDFTLKISRVEAEDLGVYYCFQGSHVPRTFGGGTKLNQTG
B4: mouse monoclonal antibody #3 (antibody, V domains shown)
VH: GGGLVKPGGSLKLSCAASGFTFSSYGMSWVRQTPEKRLEWVATISSGGSYTYYPDSVKGRFTISRDNAKNTLYLQMSSLRSEDTAMYYCASLASYYFDYWGQGTTLTVSS
VL: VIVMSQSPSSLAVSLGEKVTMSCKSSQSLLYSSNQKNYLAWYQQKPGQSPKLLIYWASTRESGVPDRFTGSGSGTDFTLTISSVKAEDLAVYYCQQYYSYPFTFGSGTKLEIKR
B5: human-mouse chimeric anti-CAPRIN-1 antibody #29 (antibody, human IgG1, kappa)
heavy: not shown
light: GTCGDIVMSQSPSSLAVSAGEKVTMSCKSSQSLLNSRTRKNYLAWVQHKPGQSPRLLIYWASTRESGVPDRFTGSGSGTDFTLTISSVQAEDLAVYYCRQSYNLVTFGAGPSTVAAPSVFIFPPSDEQLKSGTASVVCLLNNFYPREAKVQWKVDNALQSGNSQESVTEQDSKDSTYSLSSTLTLSKADYEKHKVYACEVTHQGLSSPVTKSFNRGEC
B6: human-mouse chimeric anti-CAPRIN-1 antibody #28 (antibody, human IgG1, kappa, V domains shown)
VH: GPDLVKPGASVKISCKASGYSFTAYYMHWVKQSHGKSLEWIGRVNPNNGGTTYNQKFKGKAILTVDKSSSTAYMELRSLTFEDSAVYYCARRIYYGYFDYWGQGTTVTVSS
VL: AFFAVSLGQRATISCKASQSVDYDGDSYMNWYQQKPGQPPKLLIYVASNLESGVPARFSGSGSGTDFTLNIHPVEEEDAATYYCQQSNEDPYTFGGGTKLEIKQ
B7: mouse monoclonal antibody #12 (antibody, V domains shown)
VH: EVQLHQFGAELVKPGASVKISCKASGYTFTDYNMDWVKQSHGKSLEWIGDINPNYDSTSYNQKFKGKATLTVDKSSSTAYMELRSLTSEDTAVYYCARSRSYDYEGFAYWGQGTLVTVSA
VL: DIQMTQSPASLSASVGETVTITCRASGNIHNYLAWYQQKQGKSPQLLVYNAKTLADGVPSRFSGSGSGTQYSLKINSLQPEDFGSYYCQHFWSTLTFGAGTKLELKR
notes: mouse hybridoma antibody
B8: mouse monoclonal antibody #14 (antibody, V domains shown)
VH: B7 VH
VL: DIQLTQSPASLSASVGETVTITCRASGNIHNYLAWYQQKQGKSPQLLVYNAKTLADGVPSRFSGSGSGTQYSLKINSLQPEDFGSYYCQHFWSTLTFGGGTKLEIK
notes: mouse hybridoma antibody
B9: mouse monoclonal antibody #15 (antibody, V domains shown)
VH: B7 VH
VL: SGDRVSLSCRASQSISNYLHWYQQKSHESPRLLIKYASQSISGIPSRFSGSGSGTDFTLSINSVETEDFGMYFCQQSNSWPYTFGAGTKLEIKQ
notes: mouse hybridoma antibody
B10: mouse monoclonal antibody #18 (antibody, V domains shown)
VH: LQESGAELARPGASVKLSCKASGYTFTSYWMQWVKQRPGQGLEWIGAIYPGDGDTRYTQKFKGKATLTADKSSSTAYMQLSSLASEDSAVYYCARGEYGNYFAYWGQGTTVTVSS
VL: TSDASLGERVTITCKASQDINSYLSWFQQKPGKSPKTLIYRANRLVDGVPSRFSGSGSGQDYSLTISSLEYEDMGIYYCLQYDEFPLTFGGGTKLEIKQ
notes: mouse hybridoma antibody
B11: mouse-chicken chimeric antibody #1 (antibody, mouse IgG1, V domains shown)
VH: AVTLDESGGGLQMSRGGLSLVCKASGFDFSSYQMNWIRQAPGKGLEFVAAINKFGNSTGHGAAVKGRVTISRDNGQSTVRLQLNNLRAEDTAIYFCTKHAYGYCGSGTWCAAGEIDAWGHGTEVIVSS
VL: QAASTQPSSVSANPGETVEITCSGGGSYSYGWFQQKSPGSAPVTVIYYNNKRPSDIPSRFSGSKSGSTGTLTITGVQADDEAVYYCGSGDSTDTAVFGAGTTLTVLG
B12: mouse-chicken chimeric antibody #3 (antibody, mouse IgG1, V domains shown)
VH: AVTLDESGGGLQTPGGALSLVCKASGFTFSGYDMLWVRQAPGKGLEWVAGIGSTGGGTDYGAAVKGRATISRDNGQSTVRLQLNNLRAEDTATYYCAKVAGGCNSGYCRDSPGSIDAWGHGTEVIVS
VL: AVTQQPASVSANPGETVKITCSGGGSRNYYGWYQQKSPGSVPVTVIYYDDQRPSNIPSRFSGALSGSTSTLTITGVQADDEAVYFCGSADSNTYEGSFGAGTTLTVL
B13: mouse-chicken chimeric antibody #2 (antibody, mouse IgG1, V domains shown)
VH: AVTLDESGGGLQTPGGGLSLVCKASGFTFSSFDMGWVRQAPGKGLEFVAQINDAGSRTWYATAVKGRATISRDNGQTTVRLQLNNLRAEDTGTYYCTRGSGYVGAGAIDAWGHGTEVIVS
VL: AALTQPSSVSANPGETVKITCSGGSGYYGWYQQQKSPGSAPVTVIYQNDKRPSDIPSRFSGSGSGSTNTLTITGVQAEDEAVYFCGRYDSTDSGIFGAGTTLTVL

biological target: T1, CAPRIN-1 protein on the cell surface of …; assay: cell-based or functional assay

| ADCC activity on Hep3B, HepG2, SK-Hep-1, SW480 [%] | Binder | cytotoxicity (ADCC, 51Cr release) on SK-Hep-1 [%] |
| --- | --- | --- |
| – | B1 | ≥ 12 |
| – | B2 | ≥ 12 |
| ≥ 20 | B3 | – |
| – | B4 | ≥ 12 |
| ≥ 20 | B5 | – |
| ≥ 20 | B6 | – |
| – | B7 | ≥ 12 |
| – | B8 | ≥ 12 |
| – | B9 | ≥ 12 |
| – | B10 | ≥ 12 |

biological target: T1, CAPRIN-1 protein on the cell surface of …; assay: flow cytometry on Hep3B, HepG2, SK-Hep-1, SW480; culture supernatant; vs isotype control
Method: Subsequently, four liver cancer cell lines (Hep3 GB, HepG2, SK-Hep-1, and SW480), which were confirmed to express a CAPRIN-1 gene, were investigated for whether or not a CAPRIN-1 protein is expressed on the surfaces of these cells. 1×10⁶ cells of each cell line were centrifuged with a 1.5-mL micro centrifugation tube. To the cells was added the culture supernatant (100 μL) containing any of mouse monoclonal antibodies #1 to #22 against a CAPRIN-1 protein reacting to cancer cell surface produced in Example 4 and mouse-chicken chimeric antibodies #1 to #3 against a CAPRIN-1 protein produced in the above (2), followed by being left to stand on ice for 1 hour. After washing with PBS, the cells were suspended in a FITC-labeled goat anti-mouse IgG antibody (manufactured by Invitrogen Corporation) diluted by 500-fold with PBS containing 0.1% FBS, followed by being left to stand on ice for 1 hour. After washing with PBS, the fluorescence intensity was measured with FACS Calibur available from Becton, Dickinson and Company. Separately, as a control, the same procedure as in above was performed using an iso-type control antibody, instead of the culture supernatants containing the mouse monoclonal antibodies #1 to #22 against a CAPRIN-1 protein and the mouse-chicken chimeric antibodies #1 to #3. As a result, the fluorescence intensity in the cells to which any of the monoclonal antibodies #1 to #22 and the mouse-chicken chimeric antibodies #1 to #3 was added was 20% or more higher than that in the control in every case. Specifically, in the case of using mouse-chicken chimeric antibody #1, the fluorescence intensity was enhanced by 200% or more in both SK-Hep-1 and Hep3B. […] The rate of increase in the fluorescence intensity is represented by the rate of increase in the mean fluorescence intensity (MFI value) in each cell and is calculated by the following calculation formula: […]

| rate of increase in mean fluorescence intensity [%] | Binder |
| --- | --- |
| ≥ 20 | B1 |
| ≥ 20 | B11 |
| ≥ 20 | B12 |
| ≥ 20 | B2 |
| ≥ 20 | B13 |
| ≥ 20 | B4 |
| ≥ 20 | B7 |
| ≥ 20 | B8 |
| ≥ 20 | B9 |
| ≥ 20 | B10 |
